Biological target: M2pd (modified M2 containing amino acids from Ala-8p to Ala326) (human) (UniProt P56817)
Experiment: cell-based or functional assay

M2pd (modified M2 containing amino acids from Ala-8p to Ala326) (human), sequence (P56817 22-501 limits assumed): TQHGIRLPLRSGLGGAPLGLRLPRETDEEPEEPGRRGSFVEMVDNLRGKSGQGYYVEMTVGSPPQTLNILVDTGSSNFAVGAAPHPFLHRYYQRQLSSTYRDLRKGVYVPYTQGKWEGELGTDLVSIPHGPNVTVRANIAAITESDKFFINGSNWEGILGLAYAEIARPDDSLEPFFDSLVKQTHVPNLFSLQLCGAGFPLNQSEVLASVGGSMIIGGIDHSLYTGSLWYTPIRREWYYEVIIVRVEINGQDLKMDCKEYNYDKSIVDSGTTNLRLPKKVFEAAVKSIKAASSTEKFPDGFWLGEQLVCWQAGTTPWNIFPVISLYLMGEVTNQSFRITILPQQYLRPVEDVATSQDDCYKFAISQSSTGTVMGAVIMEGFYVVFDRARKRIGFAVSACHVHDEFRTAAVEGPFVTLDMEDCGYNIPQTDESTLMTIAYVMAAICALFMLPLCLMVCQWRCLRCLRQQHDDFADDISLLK

## Pepstatin A (peptide)
  IC50 of inhibition of enzyme activity: 300 µM
